One block for each molecule: values may come before it.
Tests used:
[1] = cited from earlier work
Source text: Although GLP-1 exerts significant effects in an individual’s body, its short half-life is a significant drawback. Many studies have been conducted in effort to overcome the hurdles of GLP-1 and to develop it as a medication. Traditional efforts to increase the size of small therapeutic proteins have included polyethylene glycol (PEG) conjugation. […] The in vitro activity of GLP1_8A37C-HSA was greater than that of GLP1_8G37C-HSA, probably due to the alanine to glycine change at position 8 (A8G) affecting the interactions with GLP-1R. […] Despite the low EC50 value of GLP1_ ...

GLP-1 receptor (GLP-1R) = GLP-1 receptor (GLP-1R) (UniProt P43220)
GLP-1R = target: T1, GLP-1R (Homo sapiens, UniProt P43220); assay: In vitro activity assay: cAMP production by GLP-1R-overexpressing HEK-293 cells; type: cell-based; details: HEK293 cells transfected with pcDNA3.1-GLP-1R_tango; 15 min exposure; cAMP Parameter Assay Kit; normalized to cAMP with 1 μM GLP1_C; dose-response fit in OriginPro; n = 3/group
T1 construct: Tango fusion cassette (named only as '_tango' in the plasmid name); host or cells: HEK293 (ATCC), transiently transfected
Experimental: The plasmid pcDNA3.1-GLP-1R_tango (Addgene, Cambridge, MA, USA) and transfection reagent were then mixed in serum-free medium for 20 min, in accordance with the manufacturer’s recommendation. […] The levels of cAMP in the cell lysate were measured using the cAMP Parameter Assay Kit following the manufacturer’s protocol. […] The half maximal effective concentrations (EC50) of each curve were estimated from a dose–response curve using OriginPro software. Absorbance at 450 nm was monitored using a Varioskan Lux microplate reader (Thermo Fisher Scientific).

T1 sequence (P43220 24-463): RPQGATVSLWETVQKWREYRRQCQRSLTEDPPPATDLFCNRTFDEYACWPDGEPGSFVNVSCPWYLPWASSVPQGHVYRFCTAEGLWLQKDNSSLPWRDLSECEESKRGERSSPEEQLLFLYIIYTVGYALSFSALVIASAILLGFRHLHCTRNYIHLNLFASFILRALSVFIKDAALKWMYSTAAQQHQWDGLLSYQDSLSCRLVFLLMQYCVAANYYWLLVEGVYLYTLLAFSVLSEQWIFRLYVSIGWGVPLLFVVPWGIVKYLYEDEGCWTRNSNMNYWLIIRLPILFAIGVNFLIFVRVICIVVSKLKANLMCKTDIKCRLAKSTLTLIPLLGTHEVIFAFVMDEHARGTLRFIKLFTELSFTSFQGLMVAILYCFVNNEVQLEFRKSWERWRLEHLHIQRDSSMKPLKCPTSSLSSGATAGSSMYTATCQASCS
Sequence of GLP-1 receptor (GLP-1R) (P43220 24-463): as above

Molecule: CC[C@H](C)[C@H](NC(=O)[C@H](Cc1ccccc1)NC(=O)[C@H](CCC(=O)O)NC(=O)[C@H](CCCCN)NC(=O)[C@H](C)NC(=O)[C@H](C)NC(=O)[C@H](CCC(N)=O)NC(=O)CNC(=O)[C@H](CCC(=O)O)NC(=O)[C@H](CC(C)C)NC(=O)[C@H](Cc1ccc(O)cc1)NC(=O)[C@H](CO)NC(=O)[C@H](CO)NC(=O)[C@@H](NC(=O)[C@H](CC(=O)O)NC(=O)[C@H](CO)NC(=O)[C@@H](NC(=O)[C@H](Cc1ccccc1)NC(=O)[C@@H](NC(=O)CNC(=O)[C@H](CCC(=O)O)NC(=O)[C@H](C)NC(=O)[C@@H](N)Cc1c[nH]cn1)[C@@H](C)O)[C@@H](C)O)C(C)C)C(=O)N[C@@H](C)C(=O)N[C@@H](Cc1c[nH]c2ccccc12)C(=O)N[C@@H](CC(C)C)C(=O)N[C@H](C(=O)N[C@@H](CCCNC(=N)N)C(=O)NCC(=O)N[C@@H](CCCNC(=N)N)C(=O)NCC(=O)O)C(C)C [GLP1_C]
plasma half-life ([1]; in animal): only a few minutes in animal

EC50 of cAMP production by GLP-1R-overexpressing HEK-293 cells (GLP-1 receptor (GLP-1R)): 185 nM
Molecule: GLP1_8A37C-HSA (from UniProt P02768 25-609)

EC50 (GLP-1R): 185 nM
Molecule: GLP1_8A37C-HSA: GLP1-HSA conjugate with alanine at position 8 and albumin at its C-terminus (HAEGTFTSDVSSYLEGQAAKEFIAWLVRGRC; not fully specified; GLP-1(7-37), Ala8 kept, G37C; Cys37 is joined through TET-PEG4-maleimide / TCO-maleimide (IEDDA) to Cys34 of human serum albumin (carrier, UniProt P02768 25-609, not included))

EC50 (GLP-1R): 1120 nM
Molecule: GLP1_8G16AzF-HSA: GLP1-HSA conjugate generated by HSA conjugation to position 16 of GLP-1 via SPAAC (HGEGTFTSDFSSYLEGQAAKEFIAWLVRGRG; not fully specified; GLP-1(7-37) A8G; Residue 16 (entry position 10) is p-azido-L-phenylalanine, written as parent Phe, joined by SPAAC through DBCO-PEG4-maleimide to Cys34 of human serum albumin (carrier, UniProt P02768)

EC50 of cAMP production by GLP-1R-overexpressing HEK-293 cells (GLP-1 receptor (GLP-1R)): 1340 nM
Molecule: GLP1_8G37C-HSA (from UniProt P02768 25-609)

EC50 (GLP-1R): 1340 nM
Molecule: GLP1_8G37C-HSA: GLP1-HSA conjugate, HSA conjugated to GLP1_8G37C via Michael addition and IEDDA (HGEGTFTSDVSSYLEGQAAKEFIAWLVRGRC; not fully specified; GLP-1(7-37) A8G, G37C; Cys37 is joined through TET-PEG4-maleimide / TCO-maleimide (IEDDA) to Cys34 of human serum albumin (carrier, UniProt P02768 25-609, not included); K34R is inferred from the expe)

Molecule: Glucagon-like peptide-1 [GLP-1]
half-life in the body ([1]; reported, reference not given): 2 to 3 min

Reference: paper PMC7919490, “Effect of C-terminus Conjugation via Different Conjugation Chemistries on In Vivo Activity of Albumin-Conjugated Recombinant GLP-1” (Pharmaceutics, 2021)
